# Experimental data as given in patent US20210008180A1, “FORMULATIONS CONTAINING MUCIN-AFFECTING PROTEASES” (MUCPHARM PTY LTD, priority 2018, published 2021).
# B1: Papain: plant-derived mucin-affecting protease enzyme extracted from papaya; loaded into DC Beads 300-500 μm (protein, UniProt P00784 134-345, looked up)
# Papain: IPEYVDWRQKGAVTPVKNQGSCGSCWAFSAVVTIEGIIKIRTGNLNEYSEQELLDCDRRSYGCNGGYPWSALQLVAQYGIHYRNTYPYEGVQRYCRSREKGPYAAKTDGVRQVQPYNEGALLYSIANQPVSVVLEAAGKDFQLYRGGIFVGPCGNKVDHAVAAVGYGPNYILIKNSWGTGWGENGYIRIKRGTGNSYGVCGLYTSSFYPVKN
# modifications: loaded into DC Beads
# notes: plant-derived mucin-affecting protease enzyme extracted from papaya; loaded into DC Beads 300-500 μm
# Legend:
# [1] = tested on: HT29 cells; assay: Efficacy of Papain released from DC Beads in Transwell chamber; assay type: cell-based, human; conditions: 5 mg/ml Papain (500 μg/80 μl beads) loaded beads in Transwell chamber; after 3 hours
# Method: Subsequently, experiments were conducted to determine the efficacy of the Papain released from the beads. In these experiments, HT29 cells (human colorectal cancer cell line) were seeded in 24 well plates. After 24 h, the plates were treated with 5 mg/ml Papain (500 μg/80 μl beads) loaded beads in a Transwell chamber. After every 3 h, the Transwell chamber containing beads was transferred to a fresh well. This process was continued up to 3 days.
# [2] = Release of Papain from DC Beads (300-500 μm), azo-casein assay; assay type: physicochemical; conditions: 80 μL, loaded from 200 μL 5 mg/mL Papain, 6 hrs, 5 mL PBS pH 6.5
# Method: 80 μL of DC Beads® (300-500 μm) were taken in a 1.5 mL centrifuge tube and washed twice with distilled water. 200 μL of a 5 mg/mL Papain solution was added and the mixture incubated at room temperature for 6 hrs with gentle agitation. The beads were then washed twice with distilled water and suspended in 5 mL PBS pH 6.5. The first sample of 250 μL was taken at 30 min, and thereafter samples were taken every hour for the next 16 hrs, with 250 μL PBS being replaced each time. The Papain concentration in the samples was measured by azo-casein assay and the cumulative release of Papain from the DC Beads as a function of time is set out in Graph shown below.
molecule,measurement,setting,value
B1,effect of Papain released from the DC Beads on cells,[1],death of all cells
same,duration of sustained release of Papain,[2],greater than 16 hours
